Source: patent US20230303666A1 (published 2023)

Molecular target: SARS-CoV-2 S on pseudotyped lentivirus (pCMV-SARS2deltaC-gp41) (SARS-CoV-2, UniProt P0DTC2 14-1246)
Assay: cell-based or functional assay

| Binder | IC50 of neutralization of pseudotyped lentiviral infection [nM] | IC50 of pseudovirus neutralization [nM] | pseudovirus neutralization potency, fold increase against monomeric SR6v15 [fold] |
| --- | --- | --- | --- |
| SR6c3 (VHH) VHH: EVQLVESGGGLVQAGDSLRLSCAASGDCHVLWRMGWFRQAPGKEREFVAAISLDGQFTNYADSVRGRFSISADSAKNTVYLQMNSLKPEDTAVYYCAALPFLDYWGQGTQVTVSS | 62.7 |  |  |
| SR6v15.d (VHH) EVQLVESGGGLVQAGDSLRLSCAASGDSYILWRMGWFRQAPGKEREFVAAISLDGQFTNYADSVRGRFSISADSAKYTVYLQMNSLKPEDTAVYYCAALPFLDYWGQGTQVTVSSEVQLVESGGGLVQAGDSLRLSCAASGDSYILWRMGWFRQAPGKEREFVAAISLDGQFTNYADSVRGRFSISADSAKYTVYLQMNSLKPEDTAVYYCAALPFLDYWGQGTQVTVSS |  | 0.329 | > 10 |
